B1: human PQBP1(1–94) including WWD (domain or fragment, UniProt O60828 1-94, looked up)
chain: MPLPVALQTRLAKRGILKHLEPEPEEEIIAEDYDDDPVDYEATRLEGLPPSWYKVFDPSCGLPYYWNADTDLVSWLSPHDPNSVVTKSAKKLRS
notes: human PQBP1, residues 1-94, including the WW domain (WWD); Used in SPR and in NMR; also called WWD of PQBP1; PQBP1-WWD

Key:
Conditions in all cases: both partners purified
Tau 410 P179A = molecular target: T1, Tau 410 P179A (human, UniProt P10636-5 1-410, P179A); test: SPR; Tau proteins immobilised on CM5 sensor chips at 1200 RU; PQBP1 constructs loaded at multiple doses for 120 s; equilibrium response; BIAcore J, 25 °C; 10 mM Tris-HCl pH 8.5, 150 mM NaCl, 3 mM EDTA, 0.005% Tween-20
T1 construct: human tau, splice form Tau 410, 410 residues, with P179A; numbers count on: Tau 410; also called Tau P179A; source: E. coli Rosetta(DE3)pLysS, purified (Ni-NTA agarose); not shown: His-tag, N-terminal, kept

Tau 441 P301S = molecular target: T2, Tau 441 P301S (human, UniProt P10636-8 1-441, P301S); test: as above
T2 construct: also called Tau P301S; FTLD-linked disease mutant of tau; source: bought: Signal Chem (T08-56GN)

[1] = molecular target: T3, human Tau 410 full-length protein (3R tau), SPR construct (human, UniProt P10636-5 1-410); test: as above
T3 construct: human tau, splice form Tau 410 (a representative 3R tau), 410 residues; numbers count on: Tau 410; source: E. coli Rosetta(DE3)pLysS, purified (Ni-NTA agarose); not shown: His-tag, N-terminal, kept

[2] = molecular target: T4, human Tau 441 full-length protein (4R tau), SPR construct (human, UniProt P10636-8 1-441); test: as above
T4 construct: source: E. coli Rosetta(DE3)pLysS, purified (Ni-NTA agarose); not shown: His-tag, N-terminal, kept

Tau 410 P216A = molecular target: T5, Tau 410 P216A (human, UniProt P10636-5 1-410, P216A); test: as above
T5 construct: human tau, splice form Tau 410, 410 residues, with P216A; numbers count on: Tau 410; also called Tau P216A; source: E. coli Rosetta(DE3)pLysS, purified (Ni-NTA agarose); not shown: His-tag, N-terminal, kept

Tau(244–341) of Tau 410 = molecular target: T6, Tau(244–341) of Tau 410 (human, UniProt P10636-5 244-341); test: NMR titration; 1H-15N HSQC of labelled tau fragments without and with PQBP1(1–94), molar ratio Tau:PQBP1(1–94) 1:5; 0.1–0.5 mM tau, 20 mM sodium phosphate pH 7.0, 20 mM NaCl, 1 mM dithiothreitol, 283 K
T6 construct: human tau, splice form Tau 410, residues 244-341 (repeat region); numbers count on: Tau 410; Isotope-labelled (15N); also called the repeat region

[3] = molecular target: B1; test: as above

T3 sequence (P10636 other isoform, or with tags, fused parts or gaps): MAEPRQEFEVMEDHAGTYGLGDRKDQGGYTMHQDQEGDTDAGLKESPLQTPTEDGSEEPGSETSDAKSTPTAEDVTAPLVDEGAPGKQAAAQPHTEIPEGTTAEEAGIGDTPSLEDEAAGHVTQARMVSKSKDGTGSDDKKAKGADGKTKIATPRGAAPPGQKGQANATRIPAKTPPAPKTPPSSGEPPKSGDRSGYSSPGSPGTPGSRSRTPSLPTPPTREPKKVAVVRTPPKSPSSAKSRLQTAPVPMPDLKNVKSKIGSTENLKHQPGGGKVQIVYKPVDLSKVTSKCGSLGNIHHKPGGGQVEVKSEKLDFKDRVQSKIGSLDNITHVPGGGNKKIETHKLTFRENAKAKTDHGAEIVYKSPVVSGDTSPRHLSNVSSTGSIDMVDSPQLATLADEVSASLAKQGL
T4 sequence (P10636 other isoform, or with tags, fused parts or gaps): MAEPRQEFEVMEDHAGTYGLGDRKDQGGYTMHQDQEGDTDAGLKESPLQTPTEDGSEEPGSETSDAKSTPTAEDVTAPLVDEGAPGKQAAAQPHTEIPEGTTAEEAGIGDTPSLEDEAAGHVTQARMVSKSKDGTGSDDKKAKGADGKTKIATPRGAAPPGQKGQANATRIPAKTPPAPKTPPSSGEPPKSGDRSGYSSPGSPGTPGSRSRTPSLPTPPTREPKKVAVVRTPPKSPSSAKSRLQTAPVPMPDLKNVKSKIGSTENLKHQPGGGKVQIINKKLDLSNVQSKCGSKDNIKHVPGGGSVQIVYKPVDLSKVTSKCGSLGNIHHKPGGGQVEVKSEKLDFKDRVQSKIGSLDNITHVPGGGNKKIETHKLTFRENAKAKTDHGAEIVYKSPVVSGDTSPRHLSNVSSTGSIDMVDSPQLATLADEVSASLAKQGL
T2 sequence (P10636 other isoform, or with tags, fused parts or gaps P301S | P301S | P301S P301S): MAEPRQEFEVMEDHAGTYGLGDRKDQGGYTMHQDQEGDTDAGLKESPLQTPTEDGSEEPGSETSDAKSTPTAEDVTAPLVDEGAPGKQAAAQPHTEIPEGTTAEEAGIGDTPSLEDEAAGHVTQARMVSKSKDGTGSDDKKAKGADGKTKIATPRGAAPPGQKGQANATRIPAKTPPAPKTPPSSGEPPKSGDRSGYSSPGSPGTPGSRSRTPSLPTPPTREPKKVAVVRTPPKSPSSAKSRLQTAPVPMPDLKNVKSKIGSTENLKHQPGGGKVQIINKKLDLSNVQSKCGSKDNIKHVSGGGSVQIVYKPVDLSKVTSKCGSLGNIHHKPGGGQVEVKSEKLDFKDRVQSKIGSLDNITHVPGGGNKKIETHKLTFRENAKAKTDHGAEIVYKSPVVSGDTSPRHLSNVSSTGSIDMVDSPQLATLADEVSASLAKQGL
T1 sequence (P10636 other isoform, or with tags, fused parts or gaps P179A | P179A | P179A P179A): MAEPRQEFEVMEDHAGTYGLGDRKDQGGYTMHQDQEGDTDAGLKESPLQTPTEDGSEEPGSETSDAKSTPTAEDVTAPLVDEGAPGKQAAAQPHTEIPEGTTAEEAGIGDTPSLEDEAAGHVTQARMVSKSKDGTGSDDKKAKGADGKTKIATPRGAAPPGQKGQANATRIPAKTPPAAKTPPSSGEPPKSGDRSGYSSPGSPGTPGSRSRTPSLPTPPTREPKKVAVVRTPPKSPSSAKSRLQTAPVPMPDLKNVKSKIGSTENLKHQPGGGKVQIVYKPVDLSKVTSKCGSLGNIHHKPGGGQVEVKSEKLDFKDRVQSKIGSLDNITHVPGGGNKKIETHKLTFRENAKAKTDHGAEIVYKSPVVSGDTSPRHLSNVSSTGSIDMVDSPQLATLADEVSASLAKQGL
T5 sequence (P10636 other isoform, or with tags, fused parts or gaps P216A | P216A | P216A P216A): as the sequence (P10636 other isoform, or with tags, fused parts or gaps P179A | P179A | P179A P179A) above, with A179P, P216A counted along it
T6 sequence (P10636 other isoform, or with tags, fused parts or gaps): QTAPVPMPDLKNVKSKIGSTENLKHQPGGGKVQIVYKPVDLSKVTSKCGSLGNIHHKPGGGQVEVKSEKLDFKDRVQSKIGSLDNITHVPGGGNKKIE

| binding result (Tau 410 P179A) | binding result (Tau 441 P301S) | binding result [1] | binding result [2] | binding result (Tau 410 P216A) | binding result (Tau(244–341) of Tau 410) | binding result [3] | Binder |
| --- | --- | --- | --- | --- | --- | --- | --- |
| binds | binds | binds | binds | binds |  |  | human PQBP1 full-length form (PQBP1-FL) (natural protein, UniProt O60828 1-265, looked up, also called full-length PQBP1) MPLPVALQTRLAKRGILKHLEPEPEEEIIAEDYDDDPVDYEATRLEGLPPSWYKVFDPSCGLPYYWNADTDLVSWLSPHDPNSVVTKSAKKLRSSNADAEEKLDRSHDKSDRGHDKSDRSHEKLDRGHDKSDRGHDKSDRDRERGYDKVDRERERDRERDRDRGYDKADREEGKERRHHRREELAPYPKSKKAVSRKDEELDPMDPSSYSDAPRGTWSTGLPKRNEAKTGADTTAAGPLFQQRPYPSPGAVLRANAEASRTKQQD |
|  |  | binds | binds |  | binds |  | B1 |
|  |  |  |  |  |  | binds | IATPRGAAPPGQKGQANATRIPAKTPPAPKTPPSSGEPPKSGDRSGY (domain or fragment, human, UniProt P10636-5 151-197, looked up, numbers count on: Tau 410; pOPHLT-s has a TEV protease cleavage site after the His-tag and lipoyl domain; Isotope-labelled (15N); also called proline-rich region) [Tau(151–197) of Tau 410] |
|  |  |  |  |  |  | binds | SSPGSPGTPGSRSRTPSLPTPPTREPKKVAVVRTPPKSPSSAKSRL (domain or fragment, human, UniProt P10636-5 198-243, looked up, human tau, splice form Tau 410, residues 198-243; numbers count on: Tau 410; pOPHLT-s has a TEV protease cleavage site after the His-tag and lipoyl domain; Isotope-labelled (15N); also called proline-rich region) [Tau(198–243) of Tau 410] |

— paper PMC8592984, “Tau activates microglia via the PQBP1-cGAS-STING pathway to promote brain inflammation” (Nature Communications, 2021)
